Where a chain is given by its changes, count along the chain named. Where two headings read alike, the source gives them in different places. One block for each binder: values may come before it.
Assays:
[1] = target: T1, recombinant human TIGIT extracellular domain (ECD) (human, UniProt Q495A1 22-138); assay: blocking ELISA, VHH clone against PVR binding to h-TIGIT
T1 construct: Bought protein (Arco Bio); also called h-TIGIT ECD; h-TIGIT
T1 sequence: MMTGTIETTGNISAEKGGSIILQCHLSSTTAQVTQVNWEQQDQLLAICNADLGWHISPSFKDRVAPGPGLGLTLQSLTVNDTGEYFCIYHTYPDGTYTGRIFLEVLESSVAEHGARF

[2] = target: T2, human TIGIT (T cell immunoreceptor with Ig and ITIM domains), expressed on cells (human, UniProt Q495A1 22-244); assay: cell-based or functional assay
T2 sequence: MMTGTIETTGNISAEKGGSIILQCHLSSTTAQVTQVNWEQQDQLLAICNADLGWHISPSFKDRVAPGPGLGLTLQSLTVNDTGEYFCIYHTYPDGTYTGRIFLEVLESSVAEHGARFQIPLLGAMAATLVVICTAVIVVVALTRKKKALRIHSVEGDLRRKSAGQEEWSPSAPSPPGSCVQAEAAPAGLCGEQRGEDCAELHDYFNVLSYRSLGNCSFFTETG

[3] = target: T2, human TIGIT (T cell immunoreceptor with …); assay: flow cytometry, whole cell binding to Jurkat cells stably expressing human TIGIT; Alexa Fluor 488 anti-human IgG Fc secondary antibody
Description: FIGS. 1A-1C depict whole cell binding of representative VHH bivalent antibodies to human TIGIT determined by flowcytometry assays. […] Y axis represents Mean Fluorescence Intensity of AlexaFlour 488. X axis represents antibody concentrations in nanomolar. […] FIG. 1C is a schematic of the structure of a TIGIT VHH bivalent antibody.
(§1) Jurkat cells stably expressing human TIGIT and NFAT reporter gene were established. Specifically, Jurkat cells were transfected with human TIGIT expression vector by electroporation, and cells stably expressing human TIGIT were selected by 1 μg/ml puromycin during cell culture. Representative antibody clones were incubated at different concentrations with h-TIGIT stably expressing Jurkat cells (0.2×10^6/ml) in 100 μl/well in 96-well plate in FACS buffer (PBS with 1.5% FBS) for 30 min. After washing, Alexaflour 488 conjugated anti-human IgG Fc secondary antibody (Alexa Fluor® 488 AffiniPure Goat Anti-Human IgG, Fcγ fragment specific, Jackson labs, 1:500 dilution) was added and incubated for 30 min. After washing, mean fluorescence intensity was measured using CytoFlex (Beckman Coulter) by gating live cell population. Binding affinity was calculated using GraphPad Prism.

[4] = target: T2, human TIGIT (T cell immunoreceptor with …); assay: cell-based or functional assay; remark: listed apart in the source
[5] = target: T2, human TIGIT (T cell immunoreceptor with …); assay: flow cytometry, whole cell binding to Jurkat cells stably expressing human TIGIT; anti-human IgG Fc AlexaFluor488
Procedure: Y axis is values of Mean Fluorescence Intensity of AlexaFlour 488. X axis is values of antibody concentrations in nanomolar.
The binding affinities of the humanized bivalent antibodies to human TIGIT were determined by whole cell binding to h-TIGIT stably expressed on Jurkat cells. Briefly, antibodies were incubated with h-TIGIT transfected Jurkat cells (0.2×10⁶/well in 100 μl) for 30 min in FACS buffer. The cells were washed once, then incubated with anti-human IgG Fc AlexaFluor488 (1:500).

[6] = target: T2, human TIGIT (T cell immunoreceptor with …); assay: cell-based or functional assay; remark: listed apart in the source
[7] = target: T2, human TIGIT (T cell immunoreceptor with …); assay: cell-based or functional assay; remark: listed apart in the source
[8] = target: T2, human TIGIT (T cell immunoreceptor with …); assay: cell-based or functional assay; remark: listed apart in the source
[9] = target: T2, human TIGIT (T cell immunoreceptor with …); assay: whole cell binding assays, n=3 (FIG. 10A)
Procedure: as §1

[10] = target: T2, human TIGIT (T cell immunoreceptor with …); assay: cell-based or functional assay; remark: listed apart in the source
[11] = target: T2, human TIGIT (T cell immunoreceptor with …); assay: cell-based or functional assay; remark: listed apart in the source

- % inhibition of PVR binding to h-TIGIT [1]: > 90%
B1: 15A5 VHH (VHH)
VHH: QVQLVESGGGLVQAGGSLRLSCAASERTFSSFAMGWFRQAPGKEREVVAAIDPSGRYIYYKDSVKGRFTMSRDNAKSTVYLQMNSLKPDDTARYYCAARIRGEGYYTRSSFYHYWGQGTQVTVSS
notes: Tested as VHH in SS320 culture supernatant

- EC50 (read off the curve), NFAT luciferase reporter, TIGIT blockade [2]: ~0.3 nM
B2: 3F10 bivalent VHH antibody (Fc fusion)
VHH: QVQLVESGGGLVQAGGSLRLSCASSEHTFSNFPMGWFRQAPGKERNVVAAIDSSGRLTYYADSVKGRFTISKDNAKSTVYLQMNSLKSEDTARYYCAARTGGVGYYSRSSFYNYWGQGTLVTVSS

- % inhibition of PVR binding to h-TIGIT [1]: > 90%
B3: 3F10 VHH (VHH)
VHH: B2 VHH
notes: as for B1

- EC50 (read off the curve) [3]: ~0.2 nM
- EC50 (read off the curve), NFAT luciferase reporter, TIGIT blockade [4]: ~1 nM
B4: 2B7 bivalent VHH antibody (Fc fusion)
VHH: QVQLVESGGGLVQAGGSLRLACAASGRTFSSYPMGWFRQGPGKERESVAAISSDGRFTYYAASVKGRFTISKDNAKSAAFLQMNSLKPEDTAVYYCAARDSGSGYYSRAQWYDYWGQGTQVTVSS
notes: Bivalent VHH-CH2-CH3, ExpiCHO, Protein A purified

- % inhibition of PVR binding to h-TIGIT [1]: > 90%
B5: 13H11 VHH (VHH)
VHH: B4 VHH with A21S, R27L, S31M, P33A
notes: as for B1

- % inhibition of PVR binding to h-TIGIT [1]: > 90%
B6: 1G1 VHH (VHH)
VHH: B4 VHH with G16D, A21S, A23V, R27P, T28S, Q120L
notes: as for B1

- EC50 (read off the curve) [5]: ~0.08 nM
- EC50 (read off the curve), NFAT luciferase reporter, TIGIT blockade [6]: ~0.7 nM
- EC50 (read off the curve) [3]: ~0.1 nM
- EC50 (read off the curve), NFAT luciferase reporter, TIGIT blockade [4]: ~1 nM
B7: 1G1-chimeric (1G1 bivalent VHH antibody) (Fc fusion)
chain: B4 VHH with G16D, A21S, A23V, R27P, T28S, Q120L
notes: Llama VHH of 1G1 with human IgG1 CH2 and CH3 domains; also called chimeric clone; not shown: human IgG1 CH2 and CH3 domains

- % inhibition of PVR binding to h-TIGIT [1]: > 90%
B8: 2B7 VHH (VHH)
VHH: B4 VHH
notes: as for B1

- EC50 (read off the curve), NFAT luciferase reporter, TIGIT blockade [7]: ~2 nM
B9: 1C12-EREF humanized bivalent antibody (Fc fusion)
VHH: QVQLVESGGGVVQPGRSLRLSCAASSRIFSRYGMGWFRQAPGKEREFVAAISWNGASTTYTDSVKGRFTISRDNSKNTLYLQMNSLRAEDTAVYYCAADPWGAVKLGTAEYEYWGQGTQVTVSS

- EC50 (read off the curve), NFAT luciferase reporter, TIGIT blockade [7]: ~2 nM
B10: 1C12-GLEW humanized bivalent antibody (Fc fusion)
VHH: B9 VHH with E44G, R45L, F47W

- EC50 (read off the curve), NFAT luciferase reporter, TIGIT blockade [7]: ~3 nM
B11: 1C12-EREW humanized bivalent antibody (Fc fusion)
VHH: B9 VHH with F47W

- EC50 (read off the curve), NFAT luciferase reporter, TIGIT blockade [6]: ~0.8 nM
- EC50 (read off the curve), NFAT luciferase reporter, TIGIT blockade [7]: ~0.7 nM
- EC50 (read off the curve), NFAT luciferase reporter, TIGIT blockade [4]: ~1 nM
B12: 1C12-chimeric (1C12 bivalent VHH antibody) (Fc fusion, not shown: small tags and cut ends)
chain: B9 VHH with V11L, P14T, R16D, N74S, S75A, K76E, L79T, M83I, A88P

- EC50 (read off the curve) [5]: ~0.2 nM
- EC50 (read off the curve), NFAT luciferase reporter, TIGIT blockade [6]: 1 to 1.6 nM
B13: 1G1-F-G-ERES humanized bivalent antibody (Fc fusion)
VHH: QVQLVESGGGVVQPGRSLRLSCAASGPSFSSYPMGWFRQGPGKERESVAAISSDGRFTYYADSVKGRFTISRDNSKNTLYLQMNSLRAEDTAVYYCAARDSGSGYYSRAQWYDYWGQGTLVTVSS
notes: Humanized on germline IGHV-3-30*01

- EC50 (read off the curve), NFAT luciferase reporter, TIGIT blockade [8]: ~0.7 nM
- EC50 [9]: 0.32 nM
- EC50 (read off the curve), NFAT luciferase reporter, TIGIT blockade [10]: ~1 nM
- EC50, NFAT luciferase reporter assay (n=3) [11]: 0.48 nM
B14: Bivalent 2A3 antibody (2A3-Fc) (Fc fusion)
chain: B13 VHH with P27G, G40A, G55M, S103V
notes: ExpiCHO, protein A purified; also called 2A3 clone; parental 2A3-Fc; not shown: human IgG1 CH2 and CH3 domains

- EC50 (read off the curve), NFAT luciferase reporter, TIGIT blockade [2]: ~1 nM
- EC50 (read off the curve) [3]: ~0.3 nM
B15: 3G7 bivalent VHH antibody (Fc fusion)
VHH: QVQLVESGGGLVQAGDSLRLSCEASGRTLSTYTMGWFRRAPGKEREFVGLAWPSPSTYVVDSVKGRFTISRDNAKNTIYLQMNSLKPEDTAIYYCAADYKSLTQSWLNAALDYWGQGTQVTVSS
notes: as for B4

- % inhibition of PVR binding to h-TIGIT [1]: > 90%
B16: 3G7 VHH (VHH)
VHH: B15 VHH
notes: as for B1

- EC50 (read off the curve), NFAT luciferase reporter, TIGIT blockade [2]: ~0.7 nM
B17: 2B10 bivalent VHH antibody (Fc fusion)
VHH: QVKLEESGGGLVQTGDSLRLSCAASSRIFRRYAMGWFRQAPGKEREFVAAITWSGASTTYTDSVKGRFTISRDSAENTTYLQMTSLRPEDTAVYYCAADPWGSVIVGTAEYEYWGQGTLVTVSS

- % inhibition of PVR binding to h-TIGIT [1]: > 90%
B18: 2B10 VHH (VHH)
VHH: B17 VHH
notes: as for B1

- % inhibition of PVR binding to h-TIGIT [1]: > 90%
B19: 1C12 VHH (VHH)
VHH: B9 VHH with V11L, P14T, R16D, N74S, S75A, K76E, L79T, M83I, A88P
notes: as for B1

- EC50 (read off the curve), NFAT luciferase reporter, TIGIT blockade [2]: ~3 nM
B20: 3G6 bivalent VHH antibody (Fc fusion)
VHH: QVQLVESGGGLVQAGGSLSLSCAASGSIFGISVMGWYRQAPGEQRDLVATLTRAGLTTYGDSVKGRFSISRDSAKNTVYLQMNNLKPEDTAVYYCHANIMESAASTFGRYWGQGTQVTVSS

- % inhibition of PVR binding to h-TIGIT [1]: > 90%
B21: 3G6 VHH (VHH)
VHH: B20 VHH
notes: as for B1
